Experiment [1] in a line: SPR membrane binding to POPC/POPS/PI(3,4)P2 vesicles. The settings on record: POPC/POPS/PI(3,4)P2 (77:20:3), 1 μM Smad2. On the procedure:
(§1) Figure 1 Membrane-binding properties of Smad2 FL protein and MH2 domain determined by SPR analysis.A, PtdInsP selectivity of Smad2-FL determined using POPC/POPS/PtdInsP (77:20:3 in mole ratio) LUVs coated on the L1 sensor chip. The protein concentration was 100 nM. PIP3 indicates PI(3,4,5)P3. B, determination of Kd for binding of Smad2 FL to different LUVs. The protein concentration was varied from 0 to 500 nM. C, PI(4,5)P2 concentration dependence of membrane binding of Smad2-FL determined using POPC/POPS/PI(4,5)P2 (77-x:20:x, x = 0–5 mol%) LUVs. The protein concentration was 100 nM. D, PtdInsP selectivity of the Smad2 MH2 domain determined using POPC/POPS/PtdInsP (77:20:3 in mole ratio) LUVs. […] RUmax values determined for different vesicles at 1 μM Smad2 were: 280 ± 20 for POPC/POPS/PI(4,5)P2 (77:20:3), 370 ± 10 for POPC/POPS/PI(3,4)P2 (77:20:3), 400 ± 15 for POPC/POPS/PI(3,4,5)P3 (or PIP3) (77:20:3), 400 ± 20 for POPC/POPS/PI(3)P (77:20:3), and 380 ± 20 for POPC/POPS (80:20). […]
(§2) All SPR measurements were performed at 23 °C in 20 mM Tris, pH 7.4, containing 0.16 M NaCl using a lipid-coated L1 chip in the BIACORE X-100 system (GE Healthcare) as described previously ([19], [38]). […] Sensorgrams were collected for both membrane association and dissociation but the only the association phases were further analyzed because the dissociation phases were often too slow for analysis. […]

Experiment [2] is described as follows: SPR membrane binding to POPC/POPS/PI(3,4,5)P3 vesicles. The settings on record: POPC/POPS/PI(3,4,5)P3 (or PIP3) (77:20:3), 1 μM Smad2. On the procedure: as §1, §2

B1: Smad2 WT: bacterially expressed full-length Smad2 wild-type (protein)
chain: MSSILPFTPPVVKRLLGWKKSAGGSGGAGGGEQNGQEEKWCEKAVKSLVKKLKKTGRLDELEKAITTQNCNTKCVTIPSTCSEIWGLSTANTVDQWDTTGLYSFSEQTRSLDGRLQVSHRKGLPHVIYCRLWRWPDLHSHHELKAIENCEYAFNLKKDEVCVNPYHYQRVETPVLPPVLVPRHTEILTELPPLDDYTHSIPENTNFPAGIEPQSNYIPETPPPGYISEDGETSDQQLNQSMDTGSPAELSPTTLSPVNHSLDLQPVTYSEPAFWCSIAYYELNQRVGETFHASQPSLTVDGFTDPSNSERFCLGLLSNVNRNATVEMTRRHIGRGVRLYYIGGEVFAECLSDSAIFVQSPNCNQRYGWHPATVCKIPPGCNLKIFNNQEFAALLAQSVNQGFEAVYQLTRMCTIRMSFVKGWGAEYRRQTVTSTPCWIELHLNGPLQWLDKVLTQMGSPSVRCSSMS
modifications: left off: His6, N-terminal, state not stated
notes: bacterially expressed full-length Smad2 wild-type
With B1, the results for the RUmax in experiment [1] and in experiment [2] were 370 ± 10 and 400 ± 15, respectively.

The values are drawn from paper PMC8567202, “Phosphoinositide-binding activity of Smad2 is essential for its function in TGF-β signaling” (The Journal of Biological Chemistry, 2021).
